Assay [1] in a line: Secondary enzyme assays of SSL-3 or SSL-2 with PSPP versus FPP. As to conditions: 2 mM NADPH, 1 μg enzyme, 37° C., 15 min. Format: biochemical. Here is the method:
(§1) Two primary enzyme assays (500 μl) were set up with 20 μg of purified SSL-1 or Nicotiana benthamiana squalene synthase (TSS) plus 40 μM ^3H-FPP. The assays were incubated at 37° C. for 1 h, then extracted 3× with 500 μl water saturated 1-butanol, pooled, and evaporated under a stream of nitrogen gas. The white residue was resuspended in 50 μl of 25 mM NH4HCO3 in 70% ethanol (v/v). An aliquot of the resuspension was analyzed by the acid phosphatase assay (described in supplemental FIG. 4) and shown to consist of 45% and 40% PSPP for the SSL-1 and TSS primary incubations, respectively. […] It was calculated that 1 μl of each resuspension contained ˜150 pmoles of 3H-PSPP. […] For comparison, enzyme assays were also set up containing 3 μM ^3H-FPP, 2 mM NADPH and either 1 μg each of SSL-1 plus SSL-3, or SSL-1 plus SSL-2. Additional control assays contained 5 μM ^3H-FPP, 2 mM NADPH, and either 1 μg of SSL-3 or SSL-2. The reactions were incubated at 37° C. for 15 min, stopped by addition of 50 μl 0.5 M EDTA, and extracted with 100 μl n-hexane. Aliquots of the hexane extracts, along with standards of squalene and botryococcene, were separated by silica TLC using n-hexane as the developing solvent. Standards were visualized with iodine vapors and the corresponding zones were analyzed by scintillation spectroscopy. […]

The nature of assay [2]: Substrate specificity of SSL-2 (bisfarnesyl ether formation). The format is biochemical. As to conditions: 37° C., 1 h. As to the method:
The radioactivity incorporated in the zones corresponding to bisfarnesyl ether were determined by scintillation counting. Data represents mean±S.E.M.

The nature of assay [3]: Purified SSL-1 mixed with B. braunii algal cell-free lysate, incorporation of radiolabeled FPP into botryococcene. As to conditions: purified SSL-1 mixed with algal cell-free lysate. Format: biochemical, Botryococcus braunii. As to the method:
FIG. 4 depicts the dependence of the squalene synthase-like-1 enzyme on algal lysate for botryococcene biosynthesis. […] The SSL-1 gene containing a 5′ terminal sequence coding for a hexa-histidine tag was over-expressed in E. coli and the corresponding enzyme purified by cobalt affinity chromatography according to the manufacturer (Sigma). B. braunii lysate was prepared from cells collected at the indicated stages of culture development according to the procedure described by Okada, S. et al. (Arch Biochem Biophys 422: 110-118) and 10 μg of lysate protein was used per assay. Assays were incubated at 37° C. for 1 h, then the reaction products extracted with hexane. Aliquots of the hexane extracts was separated by silica TLC and the radioactivity migrating to zones corresponding to authentic standards of botryococcene and squalene determined by scintillation counting. Data represents mean±s.e.m.
Typical enzyme assays were initiated by mixing aliquots of purified enzyme with 50 mM Mops, pH 7.3, 20 mM MgCl2, 2.5 mM 2-mercaptoethanol, 10 μM [1-^3H]-FPP (˜2×10^5 dpm total), and 2 mM NADPH in total reaction volume of 50 μl. Reactions were incubated at 37° C. for 1 h and then extracted with 100 μl n-hexane or 100 ul MTBE. […] The standards were visualized with iodine vapors and TLC zones corresponding to the standards were scrapped and analyzed by scintillation spectrometry. […]

A short description of assay [4]: Primary enzyme assay with 3H-FPP, PSPP content by acid phosphatase assay. As to conditions: 20 μg enzyme, 40 μM 3H-FPP, 37° C., 1 h. Format: biochemical. As to the method:
as §1

B1: SSL-2: Botryococcus braunii race B squalene synthase-like 2 enzyme; bacterial form is truncated SSL-2-tr2 (protein)
chain: MVKLVEVLQHPDEIVPILQMLHKTYRAKRSYKDPGLAFCYGMLQRVSRSFSVVIQQLPDELRHPICVFYLILRALDTVEDDMNLPNEVKIPLLRTFHEHLFDRSWKLKCGYGPYVDLMENYPLVTDVFLTLSPGAQEVIRDSTRRMGNGMADFIGKDEVHSVAEYDLYCHYVAGLVGSAVAKIFVDSGLEKENLVAEVDLANNMGQFLQKTNVIRDYLEDINEEPAPRMFWPREIWGKYAQELADFKDPANEKAAVQCLNHMVTDALRHCEIGLNVIPLLQNIGILRSCLIPEVMGLRTLTLCYNNPQVFRGVVKMRRGETAKLFMSIYDKRSFYQTYLRLANELEAKCKGEASGDPMVATTLKHVHGIQKSCKAALSSKELLAKSGSALTDDPAIRLLLLVGVVAYFAYAFNLGDVRGEHGVRALGSILDLSQKGLAVASVALLLLVLLARSRLPLLTSASSKQ
On to B1, for which, in assay [1], the “biosynthesis from PSPP versus FPP” value was “efficiently catalyze the biosynthesis of squalene and botryococcene, respectively, from PSPP but not FPP”. In addition, the Bisfarnesyl ether formed in assay [2] (substrate 10 μM 1-3H-FPP) is 13.5 +/− 3.3 pmoles /h · μg protein; in assay [2] (substrate 10 μM 1-3H-farnesol) it was 0 pmoles /h · μg protein; in assay [2] (substrate 10 μM FPP + 10 μM 1-3H-farnesol), 16.3 +/− 0.4 pmoles /h · μg protein.

B2: Botryococcus braunii race B squalene synthase-like 1 (SSL-1), wild type, hexa-histidine tagged, SEQ ID NO: 2 (Botryococcus braunii) (protein)
chain: MTMHQDHGVMKDLVKHPNEFPYLLQLAATTYGSPAAPIPKEPDRAFCYNTLHTVSKGFPRFVMRLPQELQDPICIFYLLLRALDTVEDDMNLKSETKISLLRVFHEHCSDRNWSMKSDYGIYADLMERFPLVVSVLEKLPPATQQTFRENVKYMGNGMADFIDKQILTVDEYDLYCHYVAGSCGIAVTKVIVQFNLATPEADSYDFSNSLGLLLQKANIITDYNEDINEEPRPRMFWPQEIWGKYAEKLADFNEPENIDTAVKCLNHMVTDAMRHIEPSLKGMVYFTDKTVFRALALLLVTAFGHLSTLYNNPNVFKEKVRQRKGRIARLVMSSRNVPGLFRTCLKLANNFESRCKQETANDPTVAMTIKRLQSIQATCRDGLAKYDTPSGLKSFCAAPTPTK
In the case of B2, the “enhancement of NAD(P)H-dependent botryococcene biosynthesis” value in assay [3] is on record as “up to 10 fold”. Moreover, in assay [4], the “PSPP share of reaction product of primary incubation” value is 45%.
